For assay [1], the target named is T1, Recombinant Human IL-1β (human, UniProt P01584 117-269).
T1 construct: bought reagent; also called IL-1B
The assay is described as follows: Biacore SPR; N-terminal VD. In outline:
(§1)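 SPR, 25° C, HBS-EP (10 mM HEPES pH 7.4, 150 mM NaCl, 3 mM EDTA, 0.005% P20). Capture via anti-mouse IgG Fcγ chip; analyte 10−200 nM at 25 μl/min. 1:1 Langmuir global fit; KD = koff/kon.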
For orientation: In SPR one partner is held on a chip, and binding of the other changes the refractive index at the surface.

The target of assay [2] is T2, Recombinant Human IL-17 (human, UniProt Q16552 20-155, limits assumed).
T2 construct: bought reagent
T2 sequence (looked up): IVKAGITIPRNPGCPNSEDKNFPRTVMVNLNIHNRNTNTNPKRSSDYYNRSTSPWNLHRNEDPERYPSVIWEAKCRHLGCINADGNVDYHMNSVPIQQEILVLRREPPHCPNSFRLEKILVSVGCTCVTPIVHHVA
The assay is described as follows: Biacore SPR; C-terminal VD. In outline: as §1

Substitutions are numbered along the chain they refer to. Bounds are passed on as bounds.

B1: DVD1599 (bispecific antibody, human IgG1, kappa)
heavy: not shown
light: DIQMTQSPSSLSASVGDRVTITCRASGNIHNYLTWYQQTPGKAPKLLIYNAKTLADGVPSRFSGSGSGTDYTFTISSLQPEDIATYYCQHFWSIPYTFGQGTKLQITRTVAAPSVFIFPPEIVLTQSPDFQSVTPKEKVTITCRASQDIGSELHWYQQKPDQPPKLLIKYASHSTSGVPSRFSGSGSGTDFTLTINGLEAEDAGTYYCHQTDSLPYTFGPGTKVDIKRTVAAPSVFIFPPSDEQLKSGTASVVCLLNNFYPREAKVQWKVDNALQSGNSQESVTEQDSKDSTYSLSSTLTLSKADYEKHKVYACEVTHQGLSSPVTKSFNRGEC
notes: V1 wt hIgG1, V2 kappa; also called DVD1599H; DVD1599L
Usually Kd stands for a measure of binding affinity in units of concentration. By koff is commonly meant the first-order rate constant of dissociation. The term kon denotes a measure of how fast the partners come together. As for B1, in assay [1], the Kd was found to be 21 pM, the koff is 4.1e-05 s⁻¹ and the on-rate (kon) worked out at 2e+06 M⁻¹ s⁻¹. In addition, in assay [2], the dissociation constant (Kd) was not above 0.074 pM, the koff is less than 1e-06 s⁻¹ and the on-rate constant (kon) amounted to 120000 M⁻¹ s⁻¹.

B2: DVD1609 (bispecific antibody, human IgG1, kappa)
heavy: not shown
light: B1 light with D148N, P163S, T175I, G204A, T211S, S213T, Y216H, P220Q
notes: V1 wt hIgG1, V2 kappa; also called DVD1609H; DVD1609L
For B2, in assay [1], the Kd is 22 pM, the koff stood at 4.6e-05 s⁻¹ and the kon stood at 2.1e+06 M⁻¹ s⁻¹. Besides, in assay [2], the dissociation constant Kd was not above 0.84 pM, the koff was less than 1e-06 s⁻¹ and the kon is 89000 M⁻¹ s⁻¹.

B3: DVD1611 (bispecific antibody, human IgG1, kappa)
heavy: not shown
light: B1 light with D148N, P163S, T175I, G204A, T211S, S213T, Y216H, P220Q
notes: V1 wt hIgG1, V2 kappa; also called DVD1611H; DVD1611L
On to B3, for which, in assay [1], the dissociation constant (Kd) is 420 pM, the koff is 0.00013 s⁻¹ and the kon stood at 310000 M⁻¹ s⁻¹. For the same molecule, in assay [2], the Kd came out at 15 pM, the koff was found to be 6e-05 s⁻¹ and the kon was 4.1e+06 M⁻¹ s⁻¹.

B4: DVD1601 (bispecific antibody, human IgG1, kappa)
heavy: not shown
light: B1 light
notes: V1 wt hIgG1, V2 kappa; also called DVD1601H; DVD1601L
In the case of B4, in assay [1], the Kd came out at 16 pM, the koff worked out at 2e-05 s⁻¹ and the kon came to 1.2e+06 M⁻¹ s⁻¹. In assay [2], the Kd is not above 0.12 pM, the koff is less than 1e-06 s⁻¹ and the on-rate constant (kon) amounted to 120000 M⁻¹ s⁻¹.

B5: DVD1623 (bispecific antibody, human IgG1, kappa)
heavy: not shown
light: DTQVTQSPSSLSASVGDRVTITCITSTDIDVDMNWYQQKPGKPPKLLISQGNTLRPGVPSRFSSSGSGTDFTFTISSLQPEDFATYYCLQSDNLPLTFGQGTKLEIKRTVAAPDIQMTQSPSSLSASVGDRVTITCRASSGIISYIDWFQQKPGKAPKRLIYATFDLASGVPSRFSGSGSGTDYTLTISSLQPEDFATYYCRQVGSYPETFGQGTKLEIKRTVAAPSVFIFPPSDEQLKSGTASVVCLLNNFYPREAKVQWKVDNALQSGNSQESVTEQDSKDSTYSLSSTLTLSKADYEKHKVYACEVTHQGLSSPVTKSFNRGEC
notes: DVD-Ig, outer AB270, inner AB273, linker set 3; V1 wt hIgG1, V2 kappa; also called DVD1623H; DVD1623L
In the case of B5, in assay [1], the dissociation constant Kd came out at 75 pM, the dissociation rate constant (koff) amounted to 0.00049 s⁻¹ and the association rate constant (kon) was found to be 6.6e+06 M⁻¹ s⁻¹. Besides, in assay [2], the equilibrium dissociation constant (Kd) is not above 0.034 pM, the off-rate constant (koff) was less than 1e-06 s⁻¹ and the kon amounted to 230000 M⁻¹ s⁻¹.

B6: DVD1627 (bispecific antibody, human IgG1, kappa)
heavy: not shown
light: B5 light with D1E, Q3T
notes: DVD-Ig, outer AB272, inner AB273, linker set 3; V1 wt hIgG1, V2 kappa; also called DVD1627H; DVD1627L
In the case of B6, in assay [1], the Kd is 86 pM, the off-rate (koff) was determined as 0.00059 s⁻¹ and the kon was found to be 6.8e+06 M⁻¹ s⁻¹. Besides, in assay [2], the Kd stood at 8.4 pM, the dissociation rate constant (koff) came to 1.7e-06 s⁻¹ and the kon came out at 200000 M⁻¹ s⁻¹.

B7: DVD1625 (bispecific antibody, human IgG1, kappa)
heavy: not shown
light: DTVVTQSPAFLSVTPGEKVTITCITSTDIDVDMNWYQQKPDQPPKLLISQGNTLRPGVPSRFSSSGSGTDFTFTISSLEAEDAATYYCLQSDNLPLTFGQGTKLEIKRTVAAPDIQMTQSPSSLSASVGDRVTITCRASSGIISYIDWFQQKPGKAPKRLIYATFDLASGVPSRFSGSGSGTDYTLTISSLQPEDFATYYCRQVGSYPETFGQGTKLEIKRTVAAPSVFIFPPSDEQLKSGTASVVCLLNNFYPREAKVQWKVDNALQSGNSQESVTEQDSKDSTYSLSSTLTLSKADYEKHKVYACEVTHQGLSSPVTKSFNRGEC
notes: DVD-Ig, outer AB271, inner AB273, linker set 3; V1 wt hIgG1, V2 kappa; also called DVD1625H; DVD1625L
Regarding B7, in assay [1], the Kd turned out to be 63 pM, the koff came to 0.00054 s⁻¹ and the kon amounted to 8.6e+06 M⁻¹ s⁻¹. Besides, in assay [2], the Kd was determined as 5.1 pM, the dissociation rate constant (koff) was found to be 3.2e-06 s⁻¹ and the kon stood at 630000 M⁻¹ s⁻¹.

B8: DVD1595 (bispecific antibody, human IgG1, kappa)
heavy: not shown
light: DTVVTQSPAFLSVTPGEKVTITCITSTDIDVDMNWYQQKPDQPPKLLISQGNTLRPGVPSRFSSSGSGTDFTFTISSLEAEDAATYYCLQSDNLPLTFGQGTKLEIKRTVAAPSVFIFPPDIQMTQSPSSLSASVGDRVTITCRASSGIISYIDWFQQKPGKAPKRLIYATFDLASGVPSRFSGSGSGTDYTLTISSLQPEDFATYYCRQVGSYPETFGQGTKLEIKRTVAAPSVFIFPPSDEQLKSGTASVVCLLNNFYPREAKVQWKVDNALQSGNSQESVTEQDSKDSTYSLSSTLTLSKADYEKHKVYACEVTHQGLSSPVTKSFNRGEC
notes: DVD-Ig, outer AB271, inner AB273, linker set 2; V1 wt hIgG1, V2 kappa; also called DVD1595H; DVD1595L
As for B8, in assay [1], the dissociation constant Kd was 55 pM, the off-rate (koff) came out at 0.00041 s⁻¹ and the on-rate constant (kon) was 7.4e+06 M⁻¹ s⁻¹. In addition, in assay [2], the equilibrium dissociation constant (Kd) amounted to 4.3 pM, the koff worked out at 6e-06 s⁻¹ and the kon is 1.4e+06 M⁻¹ s⁻¹.

B9: DVD1597 (bispecific antibody, human IgG1, kappa)
heavy: not shown
light: ETTVTQSPSSLSASVGDRVTITCITSTDIDVDMNWYQQKPGKPPKLLISQGNTLRPGVPSRFSSSGSGTDFTFTISSLQPEDFATYYCLQSDNLPLTFGQGTKLEIKRTVAAPSVFIFPPDIQMTQSPSSLSASVGDRVTITCRASSGIISYIDWFQQKPGKAPKRLIYATFDLASGVPSRFSGSGSGTDYTLTISSLQPEDFATYYCRQVGSYPETFGQGTKLEIKRTVAAPSVFIFPPSDEQLKSGTASVVCLLNNFYPREAKVQWKVDNALQSGNSQESVTEQDSKDSTYSLSSTLTLSKADYEKHKVYACEVTHQGLSSPVTKSFNRGEC
notes: DVD-Ig, outer AB272, inner AB273, linker set 2; V1 wt hIgG1, V2 kappa; also called DVD1597H; DVD1597L
Take B9: in assay [1], the Kd was 75 pM, the dissociation rate constant (koff) came out at 0.00063 s⁻¹ and the on-rate (kon) was 8.4e+06 M⁻¹ s⁻¹. Moreover, in assay [2], the dissociation constant Kd worked out at 12 pM, the koff was 4.1e-06 s⁻¹ and the kon was 350000 M⁻¹ s⁻¹.

B10: DVD1605 (bispecific antibody, human IgG1, kappa)
heavy: not shown
light: DTVVTQSPAFLSVTPGEKVTITCITSTDIDVDMNWYQQKPDQPPKLLISQGNTLRPGVPSRFSSSGSGTDFTFTISSLEAEDAATYYCLQSDNLPLTFGQGTKLEIKRTVAAPSVFIFPPEIVLTQSPDFQSVTPKEKVTITCRASQDIGSELHWYQQKPDQPPKLLIKYASHSTSGVPSRFSGSGSGTDFTLTINGLEAEDAGTYYCHQTDSLPYTFGPGTKVDIKRTVAAPSVFIFPPSDEQLKSGTASVVCLLNNFYPREAKVQWKVDNALQSGNSQESVTEQDSKDSTYSLSSTLTLSKADYEKHKVYACEVTHQGLSSPVTKSFNRGEC
notes: DVD-Ig, outer AB271, inner AB274, linker set 2; V1 wt hIgG1, V2 kappa; also called DVD1605H; DVD1605L
Take B10: in assay [1], the Kd stood at 59 pM, the off-rate (koff) was found to be 0.0005 s⁻¹ and the kon was found to be 8.6e+06 M⁻¹ s⁻¹. In addition, in assay [2], the Kd was not above 0.068 pM, the koff was less than 1e-06 s⁻¹ and the on-rate constant (kon) was 410000 M⁻¹ s⁻¹.

B11: DVD1615 (bispecific antibody, human IgG1, kappa)
heavy: not shown
light: B10 light with D148N, P163S, T175I, G204A, T211S, S213T, Y216H, P220Q
notes: DVD-Ig, outer AB271, inner AB275, linker set 2; V1 wt hIgG1, V2 kappa; also called DVD1615H; DVD1615L
With B11, in assay [1], the Kd is 55 pM, the koff is 0.00055 s⁻¹ and the kon came to 9.9e+06 M⁻¹ s⁻¹. In addition, in assay [2], the dissociation constant (Kd) came to 150 pM, the off-rate constant (koff) worked out at 6e-05 s⁻¹ and the kon came to 390000 M⁻¹ s⁻¹.

B12: DVD1603 (bispecific antibody, human IgG1, kappa)
heavy: not shown
light: DTQVTQSPSSLSASVGDRVTITCITSTDIDVDMNWYQQKPGKPPKLLISQGNTLRPGVPSRFSSSGSGTDFTFTISSLQPEDFATYYCLQSDNLPLTFGQGTKLEIKRTVAAPSVFIFPPEIVLTQSPDFQSVTPKEKVTITCRASQDIGSELHWYQQKPDQPPKLLIKYASHSTSGVPSRFSGSGSGTDFTLTINGLEAEDAGTYYCHQTDSLPYTFGPGTKVDIKRTVAAPSVFIFPPSDEQLKSGTASVVCLLNNFYPREAKVQWKVDNALQSGNSQESVTEQDSKDSTYSLSSTLTLSKADYEKHKVYACEVTHQGLSSPVTKSFNRGEC
notes: DVD-Ig, outer AB270, inner AB274, linker set 2; V1 wt hIgG1, V2 kappa; also called DVD1603H; DVD1603L
With B12, in assay [1], the Kd was determined as 69 pM, the koff worked out at 0.00048 s⁻¹ and the kon was 6.9e+06 M⁻¹ s⁻¹. Further, in assay [2], the Kd is not above 0.27 pM, the koff was less than 1e-06 s⁻¹ and the on-rate constant (kon) is 310000 M⁻¹ s⁻¹.

B13: DVD1613 (bispecific antibody, human IgG1, kappa)
heavy: not shown
light: B12 light with D148N, P163S, T175I, G204A, T211S, S213T, Y216H, P220Q
notes: DVD-Ig, outer AB270, inner AB275, linker set 2; V1 wt hIgG1, V2 kappa; also called DVD1613H; DVD1613L
B13: in assay [1], the Kd was found to be 59 pM, the koff is 0.00046 s⁻¹ and the on-rate constant (kon) was 7.8e+06 M⁻¹ s⁻¹. Besides, in assay [2], the Kd is not above 0.15 pM, the koff was less than 1e-06 s⁻¹ and the kon turned out to be 360000 M⁻¹ s⁻¹.

Source of the values: patent US20120034160A1 (AbbVie / Abbott, published 2012).
